Results taken from patent US20220195021A1 (ANWITA BIOSCIENCES, published 2022).
Where a chain is given by its changes, count along the chain named.

B1: anti-HSA VHH antibody A1 fused onto a human IgG1-Fc (Fc fusion)
chain: QVQLVESGGGLVQPGGSLRLSCAASGRIFSTYAMGWFRQPPGKEREFVASINRSGDSTYYADSVKGRFTISRDNAKNTGYLQMSSLKPEDTAVYYCAADSDGIGWFNSFEYDYWGRGTQVTVSS
notes: Llama VHH; also called Ab A1; not shown: human IgG1 Fc
B2: anti-HSA VHH antibody A3 fused onto a human IgG1-Fc (Fc fusion)
chain: QVQLVESGGGLVQAGGSLRLSCAASGRTFSIYDMGWFRQAPGKEREFVAATNLRGVSTRYADSVKGRFTISGDNAKNTVSLQMNSLIPEDTAVYYCAAAVSNWLAKDPSAYSYWGQGTQVTVSS
notes: Llama VHH; also called Ab A3; not shown: human IgG1 Fc
B3: anti-HSA VHH antibody A9 fused onto a human IgG1-Fc (Fc fusion)
chain: QVQLVESGGGLVQAGGSLRLSCAASGRTFSNDAMGWFRQAPGKERVFVATISWKSSTYYADSVKGRFTISRDHAKNTVYLQMNNLKPEDTAVYYCVADPYGLGFNPSDYDYWGQGTQVTVSS
notes: Llama VHH; also called Ab A9; not shown: human IgG1 Fc
B4: anti-HSA VHH antibody A2 fused onto a human IgG1-Fc (Fc fusion)
chain: QVQLVESGGGLVQAGGSLRLSCAASGRSVSLYHVGWFRHTPGKEREFVAATAWHDGSTSYADSVKGRFTISRNNAKNTVYLQMNSLQPEDTAVYYCAGEAKLGGIYSRWRDYEYWGQGTQVTVSS
notes: Llama VHH; also called Ab A2; not shown: human IgG1 Fc
B5: anti-HSA VHH antibody A6 fused onto a human IgG1-Fc (Fc fusion)
chain: B4 chain
notes: Llama VHH; also called Ab A6; not shown: human IgG1 Fc
B6: anti-HSA VHH antibody A4 fused onto a human IgG1-Fc (Fc fusion)
chain: B1 chain with N74D, T78M
notes: Llama VHH; also called Ab A4; not shown: human IgG1 Fc
B7: humanized anti-HSA VHH antibody A19 fused onto a human IgG1-Fc (Fc fusion)
chain: EVQLVESGGGLVQPGGSLRLSCAASGSTWSINTLAWYRQAPGKQRDLVARISSGGSTYYADSVKGRFTISRDNSKNTLYLQMNSLRAEDTAVYYCYAQSTWYPPSWGQGTLVTVSS
notes: also called Ab A19; anti-HSA A19; not shown: human IgG1 Fc
B8: anti-HSA VHH antibody A11 fused onto a human IgG1-Fc (Fc fusion)
chain: QVQVVESGGGLVQPGGSLRLSCAASGMSSANVMGWYRQVPGNQRELVARITSSGRTMYSDSVLGRFTISRGGAGNTADLQMNMLKPEDTAIYICNIRILGSFDPDSGYWGQGTQVTVSS
notes: Llama VHH; also called Ab A11; not shown: human IgG1 Fc
B9: anti-HSA VHH antibody A18 fused onto a human IgG1-Fc (Fc fusion)
chain: QEQLVESGGGLVQAGGSLRLSCAASTRTINIYAMAWFRQAPGKEREFVAAVTWSGLTRDYADSVKGRFTISRDNPKNTLYLQMNSLQPEDTAVYYCAAGRYSTGTHDYDYWGQGTQVTVSS
notes: Llama VHH; also called Ab A18; not shown: human IgG1 Fc
B10: anti-HSA VHH antibody A17 fused onto a human IgG1-Fc (Fc fusion)
chain: QVQLVESGGELVQAGGSLRLSCVVSGRTFRTRTMGWFRQAPGKEREYVAHISANGPITDYSDSVKGRFAISRDNAKNTVNLQMNSLKPEDTAVYYCALHNGIGVRTVPSQYDSWGQGTQVTVSS
notes: Llama VHH; also called Ab A17; not shown: human IgG1 Fc
B11: anti-HSA VHH antibody A16 fused onto a human IgG1-Fc (Fc fusion)
chain: QVQLVESGGGLVQAGGTLRLSCTASGSTFRGNGMAWHRQAPGKEREFVAYMGMTDRITYAESVKGRFTLSRDDAKNRVYLHMNNLEVEDTAVYYCTAFGSWGQGTQVTVSS
notes: Llama VHH; also called Ab A16; not shown: human IgG1 Fc
B12: anti-HSA VHH antibody A7 fused onto a human IgG1-Fc (Fc fusion)
chain: QVQLVESGGGLVQAGGSLRLSCAASGRSVSLYHVGWFRHTPGKEREFVAATAWHDGSTSYADSVKGRFTISRDSAKNTVFLQMSSLQPEDTAVYYCAADPGGSSWSQPWYDYWGQGTQVTVSS
notes: Llama VHH; also called Ab A7; not shown: human IgG1 Fc
B13: anti-HSA VHH antibody A10 fused onto a human IgG1-Fc (Fc fusion)
chain: QVQLVESGGGLVQAGGSLRLSCLASGGTFSSYAMGWFRQAPGKEREFVAAISWKSSTYYTDSVKGRFTISRDNAKNTVYLQMNSLTPEDTAVYYCAADPTGSYDQPWYDYWGQGTQVTVSS
notes: Llama VHH; also called Ab A10; not shown: human IgG1 Fc
B14: anti-HSA VHH antibody A15 fused onto a human IgG1-Fc (Fc fusion)
chain: QVQLVESGGGLVQPGGSLRLSCAASGFAFRGFGMSWVRQAPGKGFEWVSSINNGGSDTRYADSVKGRFTISRDNARNTLYLQMNSLKPEDTAVYYCAIGGPGASPSGQGTQVTVSS
notes: Llama VHH; also called Ab A15; not shown: human IgG1 Fc
B15: humanized anti-HSA VHH antibody A20 fused onto a human IgG1-Fc (Fc fusion)
chain: B14 chain with L11V, F45L, R59Y, A75S, R76K, K87R, P88A
notes: also called Ab A20; anti-HSA A20; not shown: human IgG1 Fc
B16: anti-HSA VHH antibody A12 fused onto a human IgG1-Fc (Fc fusion)
chain: B14 chain with Q1E, A28T, Q39R, G44E, N53G, S56E, A61S, T91S, S104T, Q108P
notes: Llama VHH; also called Ab A12; not shown: human IgG1 Fc
B17: anti-HSA VHH antibody A14 fused onto a human IgG1-Fc (Fc fusion)
chain: B14 chain with A28T, N53S, S56E, A61S, P101A, S104T
notes: Llama VHH; also called Ab A14; not shown: human IgG1 Fc
B18: anti-HSA VHH antibody A13 fused onto a human IgG1-Fc (Fc fusion)
chain: QVQLVESGGGSVQPGGSLRLSCAASGRNFNPMGWFRQAPGKQRESVAAIGTDGSTKYADSVKGRFTISRDNGKNTVYLQMNSLKSEDTAVYYCNVGGWGISWFPWGRGTQVSVSS
notes: Llama VHH; also called Ab A13; not shown: human IgG1 Fc
B19: anti-HSA VHH antibody A8 fused onto a human IgG1-Fc (Fc fusion)
chain: B7 chain with E1Q, Y58H, I69V, S74A, K75E, Y79V, R86K, A87P, L111Q
notes: Llama VHH; also called Ab A8; not shown: human IgG1 Fc

Each binder was assayed against T1, human serum albumin (human, UniProt P02768 25-609) (assay: BLI (OCTET RED96), VHH-IgG1-Fc on protein A biosensor, albumin in solution, pH 7.4; grade legend in paragraph 477).
T1 construct: The immunogen was rice-expressed HSA (Sigma A9731); also called HSA
Method: (§1) The VHH anti-albumin antibodies were evaluated for their ability to interact with human, monkey, and mouse serum albumins at different pH values, e.g., pH 7.4 or pH 5.5 to simulate the pH of an acidified endosome. Briefly, a VHH anti-albumin antibody was fused onto a human IgG1-Fc. The expressed protein was then loaded onto a protein A biosensor (OCTET® RED96). The biosensor was in turn dipped into a solution containing a human, monkey, or mouse serum at three or more different concentrations, e.g., 50, 100, or 200 nM, or 100, 200, or 400 nM. Primary experimental data was analyzed with global fitting to determine a dissociation constant (KD). The results are summarized in Table 7 (pH 5.5) and Table 8 (pH 7.4), wherein A represents a value no greater than 10 nM, B represents a value greater than 10 nM but no greater than 100 nM, and C represents a value greater than 100 nM but no greater than 500 nM.

Q: B1 was tested. Which Kd did it give?
A: ≤ 10 nM

Q: How did the Kd turn out when B2 was run?
A: ≤ 10 nM

Q: For B3, which Kd is on record?
A: ≤ 10 nM

Q: With B4 as the binder, how does the Kd read?
A: ≤ 10 nM

Q: How did the Kd turn out when B5 was run?
A: ≤ 10 nM

The binders below were run against T2, monkey serum albumin (monkey (cynomolgus monkey in paragraph 472), UniProt A2V9Z4 25-608) in the same assay as above.
T2 construct: also called cynomolgus monkey serum albumin; CySA
Method: as §1

Q: B1 was tested. Which Kd did it give?
A: ≤ 10 nM

Q: Which Kd does the source give for B6 here?
A: ≤ 10 nM

Q: With B4 as the binder, how does the Kd read?
A: ≤ 10 nM

Q: Which Kd does the source give for B5 here?
A: ≤ 10 nM

Q: How did the Kd turn out when B7 was run?
A: ≤ 10 nM

The binders below were run against T1, human serum albumin (assay: BLI (OCTET RED96), VHH-IgG1-Fc on protein A biosensor, pH 7.4).
Method: as §1

Q: Does B8 bind?
A: no binding

Q: Does B9 bind?
A: no binding

Each binder was assayed against T2, monkey serum albumin in the same assay as above.
Method: as §1

Q: Does B8 bind?
A: no binding

Q: Does B9 bind?
A: no binding

Q: Does B10 bind?
A: no binding

Q: Does B11 bind?
A: no binding

Each binder was assayed against T3, mouse serum albumin (mouse, UniProt P07724 25-608) in the same assay as above.
T3 construct: also called MuSA
Method: as §1

Q: Does B1 bind?
A: no binding

Q: Does B6 bind?
A: no binding

Q: Does B2 bind?
A: no binding

Q: Does B3 bind?
A: no binding

Q: Does B12 bind?
A: no binding

Q: Does B4 bind?
A: no binding

Q: Does B5 bind?
A: no binding

Q: Does B13 bind?
A: no binding

Q: Does B8 bind?
A: no binding

Q: Does B9 bind?
A: no binding

Q: Does B14 bind?
A: no binding

Q: Does B15 bind?
A: no binding

Q: Does B16 bind?
A: no binding

Q: Does B17 bind?
A: no binding

Q: Does B18 bind?
A: no binding

Q: Does B10 bind?
A: no binding

Q: Does B11 bind?
A: no binding

These binders were tested against T1, human serum albumin (assay: BLI (OCTET RED96), VHH-IgG1-Fc on protein A biosensor, albumin in solution, pH 5.5; grade legend in paragraph 477).
Method: as §1

Q: Which Kd does the source give for B19 here?
A: ≤ 10 nM
